Assay [1] has as its target T1, human B-cell maturation antigen (BCMA) (human, UniProt Q02223 1-184).
T1 construct: whole, on cells; Cell surface antigen targeted on human MM cell lines in flow cytometry
T1 sequence (looked up): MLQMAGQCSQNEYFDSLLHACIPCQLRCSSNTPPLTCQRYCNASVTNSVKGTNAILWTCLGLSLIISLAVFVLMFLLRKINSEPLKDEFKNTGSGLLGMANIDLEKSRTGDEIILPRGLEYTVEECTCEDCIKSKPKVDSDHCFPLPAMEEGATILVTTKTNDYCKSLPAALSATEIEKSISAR
Kind of assay: flow cytometry on cells; cell line and concentration not printed on the sheet (methods paragraph 609). Here is the method: Flow cytometry: During the process of flow cytometry, 100,000 cells were dispensed in each well of a V-bottom 96-well plate (Corning) and washed with 150 μL of flow cytometry buffer (PBS, 2% (v/v) FBS, 0.01% (w/v) NaN₃, pH 7.4). Subsequently, the cells were incubated with the antibodies (200 nM in 50 μL PBS) for 1 h on ice, followed by 3 rounds of washing (200 μL flow buffer). Finally, the cells were stained with R-Phycoerythrin AffiniPure F(ab′)₂ Fragment Goat Anti-Human IgG, F(ab′)₂ fragment specific (for Fabs and IgG1 or IgG1 ARCs), or R-Phycoerythrin AffiniPure F(ab′)₂ Fragment Donkey Anti-Human IgM, Fc5μ fragment specific (IgM or IgM ARCs) purchased from Jackson ImmunoResearch Laboratories for 30 min on ice. After 3 rounds of washing, the cells were passed through a BD FACSCanto™ II and the data were extracted and analyzed via FlowJo software.

Assay [2] concerns the target T2, human SLAMF7 (human, UniProt Q9NQ25 23-335).
T2 construct: whole, on cells; Cell surface antigen targeted on human MM cell lines in flow cytometry; also called CS-1
Kind of assay: flow cytometry on MM cell lines U-266, NCI-H929, RPMI-8226; negative control. The procedure:
(§1) Flow cytometry: In a V-bottom 96-well plate (Corning), 100,000 cells per well were dispensed. The cells were washed with 200 μL flow cytometry buffer (PBS, 2% (v/v) FBS, 0.01% (w/v) NaN₃, pH 7.4), incubated with DVD-IgG1 or IgG1 (50 μL of a 20 nM solution in PBS) for 30 min on ice, washed with 200 μL ice-cold flow cytometry buffer, and stained with Alexa Fluor 647 conjugated polyclonal (Fab′)₂ donkey anti-human Fc (Jackson ImmunoResearch Laboratories) for 20 min on ice. After washing twice with 200 μL ice-cold flow cytometry buffer, the cells were analyzed using a Canto II Flow Cytometer (Becton-Dickinson). Data were analyzed using FlowJo software (Tree Star).

Assay [3] deals with T3, human CD138 (human, UniProt P18827 23-310).
T3 construct: whole, on cells; Cell surface antigen targeted on human MM cell lines in flow cytometry
T3 sequence (looked up): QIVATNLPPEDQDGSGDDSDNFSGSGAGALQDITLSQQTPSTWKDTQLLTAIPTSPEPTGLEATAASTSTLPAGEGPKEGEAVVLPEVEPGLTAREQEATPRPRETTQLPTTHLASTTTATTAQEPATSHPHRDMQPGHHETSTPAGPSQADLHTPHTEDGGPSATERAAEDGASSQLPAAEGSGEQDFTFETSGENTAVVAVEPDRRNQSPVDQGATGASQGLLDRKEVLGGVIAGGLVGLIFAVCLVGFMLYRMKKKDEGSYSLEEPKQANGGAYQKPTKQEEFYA
The assay is described as above. Here is the method: as §1

Assay [4] addresses T3, human CD138. Kind of assay: flow cytometry on MM cell lines U-266, NCI-H929, RPMI-8226; DVD-IgG1 at 20 nM, Alexa Fluor 647 anti-human Fc. Here is the method: as §1
Assay [5] has as its target T2, human SLAMF7. Kind of assay: flow cytometry on MM cell lines U-266, NCI-H929, RPMI-8226; DVD-IgG1 at 20 nM, Alexa Fluor 647 anti-human Fc; curve assigned by grey tone only. Here is the method:
as §1

B1: Anti-BCMA DVD-IgG1 (2) (antibody)
light: DIQMTQSPSSLSASVGDRVTITCSASQDISNYLNWYQQKPGKAPKLLIYYTSNLHSGVPSRFSGSGSGTDFTLTISSLQPEDFATYYCQQYRKLPWTFGQGTKLEIKASTKGPELQMTQSPSSLSASVGDRVTITCRSSQSLLHTYGSPYLNWYLQKPGQSPKLLIYKVSNRFSGVPSRFSGSGSGTDFTLTISSLQPEDFAVYFCSQGTHLPYTFGGGTKVEIKRTVAAPSVFIFPPSDEQLKSGTASVVCLLNNFYPREAKVQWKVDNALQSGNSQESVTEQDSKDSTYSLSSTLTLSKADYEKHKVYACEVTHQGLSSPVTKSFNRGEC
heavy: not shown
notes: Dual variable domain IgG1: outer anti-BCMA Fv, ASTKGP spacer, inner h38C2 Fv, human IgG1 and kappa constant domains
For the molecule B1, the binding result in assay [1] is recorded as “binds”.

B2: h38C2 IgG1 (antibody, V domains shown)
VH: EVQLVESGGGLVQPGGSLRLSCAASGFTFSNYWMSWVRQSPEKGLEWVSEIRLRSDNYATHYAESVKGRFTISRDNSKNTLYLQMNSLRAEDTGIYYCKTYFYSFSYWGQGTLVTVSS
VL: ELQMTQSPSSLSASVGDRVTITCRSSQSLLHTYGSPYLNWYLQKPGQSPKLLIYKVSNRFSGVPSRFSGSGSGTDFTLTISSLQPEDFAVYFCSQGTHLPYTFGGGTKVEIKR
notes: also called humanized 38C2 IgG1
For the molecule B2, the binding result in assay [2] and in assay [3] was “no binding (tested: 20 nM (single concentration))” in each case.

B3: Anti-CD138 DVD-IgG1 (3) (antibody)
light: DIQMTQSTSSLSASLGDRVTISCSASQGINNYLNWYQQKPDGTVELLIYYTSTLQSGVPSRFSGSGSGTDYSLTISNLEPEDIGTYYCQQYSKLPRTFGGGTKLEIKASTKGPELQMTQSPSSLSASVGDRVTITCRSSQSLLHTYGSPYLNWYLQKPGQSPKLLIYKVSNRFSGVPSRFSGSGSGTDFTLTISSLQPEDFAVYFCSQGTHLPYTFGGGTKVEIKRTVAAPSVFIFPPSDEQLKSGTASVVCLLNNFYPREAKVQWKVDNALQSGNSQESVTEQDSKDSTYSLSSTLTLSKADYEKHKVYACEVTHQGLSSPVTKSFNRGEC
heavy: not shown
notes: Dual variable domain IgG1: outer anti-CD138 Fv, ASTKGP spacer, inner h38C2 Fv, human IgG1 and kappa constant domains
As for B3, in assay [4], the binding result is recorded as “binds”.

B4: Anti-SLAMF7 DVD-IgG1 (1) (antibody)
light: DIQMTQSPSSLSASVGDRVTITCKASQDVGIAVAWYQQKPGKVPKLLIYWASTRHTGVPDRFSGSGSGTDFTLTISSLQPEDVATYYCQQYSSYPYTFGQGTKVEIKASTKGPELQMTQSPSSLSASVGDRVTITCRSSQSLLHTYGSPYLNWYLQKPGQSPKLLIYKVSNRFSGVPSRFSGSGSGTDFTLTISSLQPEDFAVYFCSQGTHLPYTFGGGTKVEIKRTVAAPSVFIFPPSDEQLKSGTASVVCLLNNFYPREAKVQWKVDNALQSGNSQESVTEQDSKDSTYSLSSTLTLSKADYEKHKVYACEVTHQGLSSPVTKSFNRGEC
heavy: not shown
notes: Dual variable domain IgG1: outer anti-SLAMF7 Fv, ASTKGP spacer, inner h38C2 Fv, human IgG1 and kappa constant domains
As to B4, the binding result in assay [5] is “binds”.

For the origin of these results see patent US20230049529A1 (ALNYLAM PHARMACEUTICALS, published 2023).
